Experimental data: patent US20200131227A1, “POLYPEPTIDE WITH TUMOUR BINDING ACTIVITY” (RUPRECHT-KARLS-UNIVERSITÄT HEIDELBERG, priority 2017, published 2020)
Where a SMILES comes first, the peptide text is derived from it. Bridges are numbered along the chain shown (N, C = ends). The star is where a group is joined. DOTA = O=C(O)CN1CCN(CC(=O)O)CCN(CC(=O)*)CCN(CC(=O)O)CC1

Key:
in vivo = settings: Balb/c nude, mouse, iv, total radioactivity
Procedure: (§1) All experiments were conducted in compliance with the German animal protection laws. Eight week old Balb c/c nude mice (Charles River Laboratories) were inoculated subcutaneously at the right shoulder with 5×10^6 HNO97 cells in BD MatriGel™ (BD Bioscience). Xenografts were grown to a tumor diameter of 10-15 mm. For small animal-PET imaging mice were anesthetized using isoflurane inhalation and injected via tail-vein with 50 MBq (2 nmol) of the ^68Ga-labeled DOTA-SFITGv6 peptide (see above) solution in 100 μL PBS. Images were recorded on an Inveon small-animal PET scanner (Siemens) using a 60 min emission scan in list mode and a 10 min transmission scan. Images were taken in 3-dimensional (3D) mode and reconstructed iteratively with a fully 3D algorithm from a 256×256 matrix for viewing transaxial, coronal, and sagittal slices of 0.9 mm thickness. Pixel size was 0.38×0.38×0.79 mm3 and transaxial resolution obtained was 0.9 mm. For blocking experiments 100 μL of a 1 mM aqueous solution of SFITGv6 was pre-administered intraperitoneally 30 min before injection of the radiolabeled peptide. Biodistribution studies were performed after administration of 100 μL of a 20 nM ^177Lu-DOTA-SFITGv6 solution (1 MBq) as an intravenous bolus injection into the tail vein of the mice. After different time points (30 min to 6 hours) three animals, respectively, were sacrificed. Peripheral blood, heart, lung, spleen, liver, kidneys, muscle, brain, intestine, and injection site (tail, after intravenous injection only) were collected and weighted. Tissue-associated radioactivity was measured in a gamma counter (Berthold LB951G) and expressed as percentage of the injected dose per gram tissue (% ID/g).
(§2) All animal experiments were conducted in compliance with the German animal protection laws. For in vivo small animal PET imaging and organ distribution studies eight-week old Balb/c nude mice (Charles River Laboratories) were inoculated subcutaneously at the right shoulder with a total of 5×10^6 tumor cells in MatriGel (BD Bioscience). Xenografts were grown until a tumor diameter of 10-15 mm was reached.
(§3) 3-dimensional (3D) PET images of whole mice were captured by the Siemens Inveon PET scanner as described in Example 1. To assess the biodistribution 100 μL of a 20 nM solution (1 MBq) of ^177Lu-DOTA-SFLAP3 and ^177Lu-DOTA-SFITGv6 were administered as an intravenous bolus injection into the tail vein of mice. For each time point (30 min to 6 hours) we sacrificed a total of three animals, and subsequently collected peripheral blood, heart, lung, spleen, liver, kidneys, muscle, brain, and intestine. Tissues were weighed and respective radioactivity was measured by a gamma counter (LB951G, Berthold Technologies). Values were expressed as percentage of the injected dose radioactivity (MBq) per gram tissue (% ID/g).

HNO97 xenografts = experiment: in vivo; settings: mouse
Procedure: as §1, §2, §3

[1] = system: recurrent hypopharynx carcinoma; settings: human, in vivo
Procedure: (§4) The PET/CT scan was performed 1 and 3 hours post tracer administration with a Biograph mCT Flow™ PET/CT-Scanner (Siemens Medical Solution) using the following parameters: slice thickness of 5 mm, increment of 3-4 mm, soft-tissue reconstruction kernel, care dose Immediately after CT scanning, a whole-body PET was acquired in 3D (matrix 200×200) in FlowMotion™ with 0.7 cm/min. The emission data were corrected for random, scatter and decay. Reconstruction was conducted with an ordered subset expectation maximisation (OSEM) algorithm with 2 iterations/21 subsets and Gauss-filtered to a transaxial resolution of 5 mm at full-width half-maximum (FWHM). Attenuation correction was performed using the low-dose non-enhanced CT data. The quantitative assessment of standardized uptake values (SUV) was done using a region of interest technique.

NSCLC = settings: human, in vivo
Procedure: as §4

[2] = Small-animal PET imaging, HNO223 xenografts; set-up: species or system mice; settings: Balb/c nude, mouse, in vivo, iv, total radioactivity
[3] = Small-animal PET imaging, HNO399 xenografts; set-up: species or system mice; settings: Balb/c nude, mouse, in vivo, iv, total radioactivity

## CSCC[C@@H]1NC(=O)[C@H](CC(C)C)NC(=O)[C@H](CC(=O)O)NC(=O)CNC(=O)[C@H](CCCNC(=N)N)NC(=O)[C@H](Cc2ccccc2)NC(=O)[C@H]([C@@H](C)O)NC(=O)[C@@H](NC(=O)[C@H](CCCNC(=N)N)NC(=O)CNC(=O)CN2CCN(CC(=O)O)CCN(CC(=O)O)CCN(CC(=O)O)CC2)CSSC[C@@H](C(=O)N[C@@H](Cc2ccc(O)cc2)C(=O)N2CCC[C@H]2C(=O)N[C@@H](CC(=O)O)C(=O)O)NC(=O)[C@H](CC(C)C)NC(=O)[C@H](CCC(N)=O)NC1=O [^68Ga-DOTA-SFITGv6, metal not drawn] ({DOTA}-GRCTFRGDLMQLCYPD-OH; disulfide 3-13)
In vivo
  SUV at 1 h: 0.68 SUV
HNO97 xenografts
  time after injection until radioactivity accumulated in the tumor: ≤ 20 min
  time for which tumor accumulation was maintained: at least 140 min
  time of clearance of non-specific activity from the blood: ≤ 60 min
[1]
  SUVmax Elbow: 1.70
  SUVmax Gallbladder: 1.90
  SUVmax Hilar: 1.00
NSCLC
  SUVmax Shoulder: 1.50
[2]
  SUV at 1 h: 0.23 SUV
[3]
  SUV at 1 h: 0.33 SUV
